One data set has as its target T1, acid β-D-glucosidase (Homo sapiens, UniProt P04062).
T1 sequence (P04062 40-536): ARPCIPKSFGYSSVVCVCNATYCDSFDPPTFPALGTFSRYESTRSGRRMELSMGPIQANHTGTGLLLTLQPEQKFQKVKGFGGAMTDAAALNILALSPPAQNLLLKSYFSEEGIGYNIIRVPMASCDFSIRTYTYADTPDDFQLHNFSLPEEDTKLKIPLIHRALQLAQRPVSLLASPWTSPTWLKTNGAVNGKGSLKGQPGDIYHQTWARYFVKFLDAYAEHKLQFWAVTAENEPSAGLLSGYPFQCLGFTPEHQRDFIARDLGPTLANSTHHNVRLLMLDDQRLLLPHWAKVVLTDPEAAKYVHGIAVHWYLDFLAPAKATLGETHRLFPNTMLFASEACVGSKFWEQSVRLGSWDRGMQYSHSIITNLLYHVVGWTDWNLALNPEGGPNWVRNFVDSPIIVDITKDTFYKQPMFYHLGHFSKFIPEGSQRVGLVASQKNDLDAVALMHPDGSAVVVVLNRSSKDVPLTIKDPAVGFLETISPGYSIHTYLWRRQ
Description: Droplet-based enzymatic assay for acid β-D-glucosidase (Gaucher), comparison of substrates. The class given is biochemical. As to conditions: droplet actuator, Gaucher's disease testing. An excerpt: The invention provides assay methods for detection of Gaucher and Niemann-Pick diseases on a droplet actuator. Gaucher's disease and Niemann-Pick's disease are caused by deficient activity of the lysosomal enzymes acid β-D-glucosidase and acid sphingomyelinase, respectively. In one embodiment, the invention provides methods for a droplet-based enzymatic assay for acid β-D-glucosidase activity. For example, a multifluoroethylumbelliferyl-β-D-glucoside, such as a 4-pentafluoroethylumbelliferyl-β-D-glucoside, may be used as a substrate fluid in a droplet-based enzymatic assay for acid β-D-glucosidase enzyme activity. The increased number of fluorines makes the substrate fluid more labile to hydrolysis. The excitation/emission wavelengths for 4-pentafluoroethylumbelliferyl-β-D-glucoside are 385/495 nm.

The target in data set [1] is iduronate-2-sulfate sulphatase (IDS) (Homo sapiens, UniProt P22304). As to conditions: cited from earlier work.
Chain of iduronate-2-sulfate sulphatase (IDS) (P22304 34-550): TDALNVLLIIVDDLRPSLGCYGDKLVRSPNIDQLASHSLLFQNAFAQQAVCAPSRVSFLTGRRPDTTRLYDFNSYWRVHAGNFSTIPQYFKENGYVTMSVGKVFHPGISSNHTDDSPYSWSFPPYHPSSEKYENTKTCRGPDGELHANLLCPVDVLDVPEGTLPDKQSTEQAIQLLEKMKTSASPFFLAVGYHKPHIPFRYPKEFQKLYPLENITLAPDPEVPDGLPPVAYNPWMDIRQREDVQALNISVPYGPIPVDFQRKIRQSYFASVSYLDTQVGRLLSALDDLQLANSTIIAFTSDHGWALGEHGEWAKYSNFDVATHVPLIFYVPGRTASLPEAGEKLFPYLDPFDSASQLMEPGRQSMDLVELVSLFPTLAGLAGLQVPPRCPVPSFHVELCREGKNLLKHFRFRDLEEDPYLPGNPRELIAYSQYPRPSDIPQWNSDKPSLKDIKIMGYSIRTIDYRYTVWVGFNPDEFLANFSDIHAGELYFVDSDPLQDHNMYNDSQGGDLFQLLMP
For data set [2] the following is noted: stock solution; cited from earlier work.
Data set [3] can be described thus: Recombinant iduronidase standard curve in the presence of BSA on a droplet actuator. It counts as biochemical. To be noted: after stop buffer, room temperature. The protocol:
Serial dilutions of recombinant iduronidase were prepared in 0.05 M Na-Acetate/0.05 M Acetic acid buffer, pH 5.0 from a stock of 0.5 mg/mL recombinant iduronidase containing 1 mg/mL molecular biology grade bovine serum albumin (BSA). A substrate fluid was prepared in 0.05 M Na Acetate, pH 5.0 containing 1 mM 4-methylumbelliferyl-α-L-idopyranosiduronic acid (4-MUI) and 100 μM D-saccharic acid 1,4-lactone.
The digital microfluidic protocol for the iduronidase standard curve included the following steps: • 1. Mix one 1× droplet of iduronidase and one 1× droplet of substrate fluid to yield a 2× reaction droplet; • 2. Split the 2× reaction droplet into two 1× reaction droplets; • 3. Dispense 11 droplets of stop buffer (sodium carbonate pH 10.1, 0.01% Tween® 20) and combine them with the first set of 1× reaction droplets; • 4. Detect end point fluorescence at 365 nm (t=0); • 5. Incubate the second set of 1× reaction droplets for 1 h at room temperature; • 6. After 1 h of incubation, dispense 11 droplets of stop buffer and combine with the reaction droplets; and • 7. Detect end point fluorescence at 365 nm (t=1 h).

A short description of data set [4]: Modified Hunter's assay (IDS) on a droplet actuator, recombinant iduronidase as second enzyme. The class given is biochemical, human.
Description: Reagent solutions were prepared on-bench, and the experiment was performed on a droplet actuator using a digital microfluidic protocol. Different dilutions (1/10×, 1/4×, 1/3×, 1/2× and 1×) of plasma samples from normal (n=1) and affected (n=1) subjects were prepared using molecular grade water. A blank sample was prepared using 1 μg/mL of recombinant iduronidase in 0.05 M Na-Acetate/0.05 M Acetic acid buffer pH 5.0. A working stock of 10 μg/mL recombinant iduronidase in 0.05 M Na-Acetate/0.05 M Acetic acid buffer pH 5.0 was prepared from a stock of 0.5 mg/mL iduronidase (supplied in 0.05 M Na-Acetate with 150 mM NaCl, 0.02% Brij-35 (w/v) pH 3.5). A working stock of 1.25 mM MU-αIdoA-S substrate fluid was prepared in 0.1 M Na-Acetate, 0.1M Acetic Acid buffer pH 5.0 containing 10 mM Pb-Acetate. A substrate fluid was prepared by mixing 1 μL of 10 μg/mL recombinant iduronidase and 9 μL of 1.25 mM MU-αIdoA-S.
In one example, the digital microfluidic protocol for testing plasma sample dilutions included the following steps: • 1. […] Detect fluorescence at 364 nm (t=0 h); • 7. […] Detect fluorescence at 364 nm (t=8 h).
Eight different normal plasma samples were analyzed using two concentrations of recombinant iduronidase (i.e., 1 μg/mL and 10 μg/mL) in the modified Hunter's assay. […]

Like-named read-outs stand apart in the source and are kept apart here.

In the case of `O=c1cc(C(F)(F)C(F)(F)F)c2ccc(O[C@@H]3O[C@H](CO)[C@@H](O)[C@H](O)[C@H]3O)cc2o1` [4-pentafluoroethylumbelliferyl-β-D-glucoside], the “enzymatic activity compared with the 4-methylumbelliferyl-β-D-glucoside substrate fluid” value at acid β-D-glucosidase is listed as “as much as eight-fold greater”.

For `Cl` [chloride], the IDS activity inhibited in data set [1] (30 mM chloride) was 50%; in data set [1] (250 mM chloride) it was “completely inhibited”.

B1: recombinant iduronidase: Recombinant α-L-Iduronidase from R&D Systems, second enzyme of the Hunter's assay (protein, UniProt P35475 28-653, looked up)
Alpha-L-iduronidase: APHLVHVDAARALWPLRRFWRSTGFCPPLPHSQADQYVLSWDQQLNLAYVGAVPHRGIKQVRTHWLLELVTTRGSTGRGLSYNFTHLDGYLDLLRENQLLPGFELMGSASGHFTDFEDKQQVFEWKDLVSSLARRYIGRYGLAHVSKWNFETWNEPDHHDFDNVSMTMQGFLNYYDACSEGLRAASPALRLGGPGDSFHTPPRSPLSWGLLRHCHDGTNFFTGEAGVRLDYISLHRKGARSSISILEQEKVVAQQIRQLFPKFADTPIYNDEADPLVGWSLPQPWRADVTYAAMVVKVIAQHQNLLLANTTSAFPYALLSNDNAFLSYHPHPFAQRTLTARFQVNNTRPPHVQLLRKPVLTAMGLLALLDEEQLWAEVSQAGTVLDSNHTVGVLASAHRPQGPADAWRAAVLIYASDDTRAHPNRSVAVTLRLRGVPPGPGLVYVTRYLDNGLCSPDGEWRRLGRPVFPTAEQFRRMRAAEDPVAAAPRPLPAGGRLTLRPALRLPSLLLVHVCARPEKPPGQVTRLRALPLTQGQLVLVWSDEHVGSKCLWTYEIQFSQDGKAYTPVSRKPSTFNLFVFSPDTGAVSGSYRVRALDYWARPGPFSDPVPYLEVPVPRGPPSPGNP
On to B1, for which the “specific activity of stock enzyme” value in data set [2] is more than 7.5 nmol/min/µg. Further, the “Relative fluorescence at t = 1 hrs incubation (Rfu)” value was found to be 34.6948 Rfu in data set [3] (Idu 0.001 μg/mL), 179.1927 Rfu in data set [3] (Idu 0.01 μg/mL), 999.3997 Rfu in data set [3] (Idu 0.1 μg/mL) and 7427.665 Rfu in data set [3] (Idu 1 μg/mL). In addition, in data set [4] (1 μg/mL vs 10 μg/mL, eight normal plasma samples), the “concentration dependence of Hunter's assay activity” value was “higher activity at 10 μg/mL”. Besides, in data set [4] (1 μg/ml, data not shown), the “liberation of 4-MU from 4-methylumbelliferyl-α-L-iduronic acid in the IDS assay” value was “sufficient”.

Values taken from US8394641B2, “Method of hydrolyzing an enzymatic substrate” (Advanced Liquid Logic Inc., priority 2009, dated 2013).
